Assay results taken from patent US20110206727A1.

Target: OmpC porin purified from Salmonella typhi (Salmonella enterica subsp. enterica serovar Typhi)
Assay: phage display panning on OmpC; frequency among 8 sequenced binding phage

Frequency (fraction of sequenced phage clones) | Substance
0.125 | OmpC affinity peptide SLSLIQT
0.125 | OmpC affinity peptide TATYLLD
